Data on three molecules can be found in paper PMC2776984 (PLoS Genetics, 2009).

B2: rhGDF5 (recombinant human Growth & Differentiation Factor 5) (ligand)
chain: RQGKRPSKNLKARCSRKALHVNFKDMGWDDWIIAPLEYEAFHCEGLCEFPLRSHLEPTNHAVIQTLMNSMDPESTPPTCCVPTRLSPISILFIDSANNVVYKQYEDMVVESCGCR
notes: GDF5 (CDMP1), human, recombinant; also called CDMP1; wild-type GDF5; source: bought/supplied: Biopharm GmbH

Holding throughout (experiment): SPR; BIA2000 system (Biacore); receptor ectodomains immobilised, GDF5 proteins as analyte; apparent KD; n = 6; as described in ref. 16
Experiment [1] concerns the target BMPR1Aecd (soluble ectodomain of rhBMPR1A) (human) (UniProt P36894).
For experiment [2], the target named is BMPR1Becd (soluble ectodomain of rhBMPR1B) (human) (UniProt O00238).
Experiment [3] deals with B2. To be noted: both partners purified.
The target in experiment [4] is T1, BMPR1Aecd (soluble ectodomain of rhBMPR1A) (human, UniProt P36894 24-152).
T1 construct: BMPR1A, BMP type I receptor, human (rh), extracellular domain; also called BMPR1A ectodomain
To be noted: both partners purified.

BMPR1Aecd (soluble ectodomain of rhBMPR1A) (human), sequence (P36894 24-152): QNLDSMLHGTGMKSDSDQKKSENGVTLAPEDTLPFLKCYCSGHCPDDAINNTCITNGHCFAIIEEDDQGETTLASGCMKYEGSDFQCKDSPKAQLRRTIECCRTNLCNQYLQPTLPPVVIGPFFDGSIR
T1 sequence (P36894 24-152): as above

As for “rhN445T GDF5 (from UniProt P43026 28-501) (ligand)”, the results for the Kd in experiment [1] and in experiment [2] were 19.5 nM and 1.2 nM, respectively.

B1: BMPR1Becd (soluble ectodomain of rhBMPR1B) (receptor, human, UniProt O00238 14-126, looked up)
chain: KKEDGESTAPTPRPKVLRCKCHHHCPEDSVNNICSTDGYCFTMIEEDDSGLPVVTSGCLGLEGSDFQCRDTPIPHQRRSIECCTERNECNKDLHPTLPPLKNRDFVDGPIHHR
notes: BMPR1B, BMP type I receptor, human (rh), extracellular domain; also called BMPR1B ectodomain
Take B1: in experiment [3], the Kd amounted to 1.1 ± 0.2 nM.
For the molecule B2, in experiment [4], the Kd was 17 ± 4.6 nM.
